T1: Fc gamma receptor RIIA H167 (human, UniProt P12318 36-218)
T1 construct: soluble SPR analyte
T1 sequence (looked up): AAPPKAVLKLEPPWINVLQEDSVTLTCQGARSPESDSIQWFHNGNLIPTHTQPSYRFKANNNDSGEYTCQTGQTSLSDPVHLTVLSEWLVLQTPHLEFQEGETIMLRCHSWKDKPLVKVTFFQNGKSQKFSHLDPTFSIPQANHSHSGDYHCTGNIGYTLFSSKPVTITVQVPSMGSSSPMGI

T2: Fc gamma receptor RIIB/C (human, UniProt P31994 46-217)
T2 construct: soluble SPR analyte
T2 sequence (looked up): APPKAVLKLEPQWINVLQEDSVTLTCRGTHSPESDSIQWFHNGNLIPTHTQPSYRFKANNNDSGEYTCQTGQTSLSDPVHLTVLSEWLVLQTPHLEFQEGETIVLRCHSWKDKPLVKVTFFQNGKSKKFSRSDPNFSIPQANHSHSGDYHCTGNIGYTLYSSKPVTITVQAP

T3: Fc gamma receptor RIIA H131 on CHO-K1SV cells (human, UniProt P12318 34-317)
T3 construct: whole, on cells
T3 sequence (looked up): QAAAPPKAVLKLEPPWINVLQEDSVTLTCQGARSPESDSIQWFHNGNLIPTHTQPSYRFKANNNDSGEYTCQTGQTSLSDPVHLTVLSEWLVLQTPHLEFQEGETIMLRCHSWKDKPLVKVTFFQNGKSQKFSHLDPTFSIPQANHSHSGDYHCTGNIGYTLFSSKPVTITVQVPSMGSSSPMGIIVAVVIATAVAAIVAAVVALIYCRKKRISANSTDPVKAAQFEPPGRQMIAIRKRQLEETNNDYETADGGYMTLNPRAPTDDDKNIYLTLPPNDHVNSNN

T4: Fc gamma receptor RIIB/C on CHO-K1SV cells (human, UniProt P31994 43-310)
T4 construct: whole, on cells
T4 sequence (looked up): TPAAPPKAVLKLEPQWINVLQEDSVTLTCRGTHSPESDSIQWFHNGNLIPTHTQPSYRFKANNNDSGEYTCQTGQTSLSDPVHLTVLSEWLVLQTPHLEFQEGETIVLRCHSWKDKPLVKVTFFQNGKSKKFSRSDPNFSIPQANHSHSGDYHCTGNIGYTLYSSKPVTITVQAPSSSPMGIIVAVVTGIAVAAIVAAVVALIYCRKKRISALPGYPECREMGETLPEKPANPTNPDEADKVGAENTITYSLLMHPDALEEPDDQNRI

T5: Fc gamma receptor RIIA R167 (human, UniProt P12318 36-218)
T5 construct: soluble SPR analyte
T5 sequence (looked up): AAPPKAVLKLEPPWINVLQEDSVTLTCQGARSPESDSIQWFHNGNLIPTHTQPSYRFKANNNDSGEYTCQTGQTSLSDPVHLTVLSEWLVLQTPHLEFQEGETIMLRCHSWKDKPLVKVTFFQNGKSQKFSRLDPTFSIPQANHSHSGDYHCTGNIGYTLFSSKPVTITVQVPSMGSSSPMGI


Tests used:
C1Q = biological target: T6, C1Q (UniProt P02745 23-245; P02746 28-253; P02747 29-245); assay: SPR, Fc captured, C1Q as analyte
T6 construct: also called complement C1Q
T6 sequence (P02745 23-245 limits assumed, chain 1 of 3): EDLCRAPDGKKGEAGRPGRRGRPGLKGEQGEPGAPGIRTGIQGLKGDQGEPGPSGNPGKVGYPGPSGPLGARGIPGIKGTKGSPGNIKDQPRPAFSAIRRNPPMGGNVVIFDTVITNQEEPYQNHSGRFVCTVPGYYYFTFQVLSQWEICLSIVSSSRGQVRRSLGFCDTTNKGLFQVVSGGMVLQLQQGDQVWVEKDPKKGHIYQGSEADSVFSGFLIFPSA
T6 sequence (P02746 28-253 limits assumed, chain 2 of 3): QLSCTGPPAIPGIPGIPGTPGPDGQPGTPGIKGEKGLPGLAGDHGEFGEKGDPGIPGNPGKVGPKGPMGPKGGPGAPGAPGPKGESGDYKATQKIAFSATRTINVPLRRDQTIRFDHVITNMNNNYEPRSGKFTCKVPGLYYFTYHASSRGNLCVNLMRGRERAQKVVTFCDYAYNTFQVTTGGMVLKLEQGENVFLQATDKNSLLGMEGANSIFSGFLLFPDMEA
T6 sequence (P02747 29-245 limits assumed, chain 3 of 3): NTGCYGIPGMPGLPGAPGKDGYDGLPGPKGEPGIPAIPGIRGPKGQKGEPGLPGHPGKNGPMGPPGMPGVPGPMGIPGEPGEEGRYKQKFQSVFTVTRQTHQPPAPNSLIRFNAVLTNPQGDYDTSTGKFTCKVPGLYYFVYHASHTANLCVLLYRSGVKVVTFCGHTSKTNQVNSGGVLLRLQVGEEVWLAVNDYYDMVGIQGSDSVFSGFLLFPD
Protocol: (§1) Fc mutations to be potentially integrated into an ADAPTIR™ bispecific construct were analyzed for binding to the common Fc receptors (human and cyno) and C1Q, which is a component of the complement activation system. SPR experiments were conducted at 25° C. in HBS-EP+ buffer on a Biacore T200 system.
(§2) For these experiments, all four flow cells of a CM5 sensor chip were immobilized with goat F(ab′)2 anti-human Fc (Jackson ImmunoResearch) to a response level of ˜4000 RU. Fc variants and wild type Fc were diluted to 100 nM in HBS-EP+ and captured on the surface of the chip for 120 seconds at a flow rate of 10 μL/min. Fcγ receptors (human and cyno, all purchased from R&D Systems) and complement (C1Q, purchased from Quidel Corporation and Complement Technology, Inc) were diluted in HBS-EP+ and then flowed as analytes at 30 μL/min for 120 seconds followed by a 120 seconds dissociation. Regeneration was achieved by flowing 10 mM glycine pH 1.7 at 30 μL/min for 30 seconds followed by a 60 seconds stabilization. Flow cell 1 was always left as a blank (no captured protein) for purposes of background signal subtraction. Blank-subtracted sensorgrams for each captured Fc variant were inspected for the presence of binding to any of the Fcγ receptor proteins or complement. There are polymorphisms in the Human Fc receptors IIA and RIIIA, so both sequences were tested for binding.

Fc gamma receptor RI = biological target: T7, Fc gamma receptor RI (human, UniProt P12314 16-288); assay: SPR, Fc captured, receptor as analyte
T7 construct: also called FcγRI
T7 sequence (P12314 16-288 limits assumed): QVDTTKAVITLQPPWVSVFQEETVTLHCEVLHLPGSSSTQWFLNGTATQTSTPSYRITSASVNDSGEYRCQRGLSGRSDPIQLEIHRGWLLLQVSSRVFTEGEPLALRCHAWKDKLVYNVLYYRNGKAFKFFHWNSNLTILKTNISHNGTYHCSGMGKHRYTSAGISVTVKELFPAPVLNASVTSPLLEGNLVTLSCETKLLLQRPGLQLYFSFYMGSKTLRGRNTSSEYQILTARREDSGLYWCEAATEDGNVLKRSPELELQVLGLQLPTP
Protocol: as §1, §2

[1] = biological target: T1, Fc gamma receptor RIIA H167; assay: SPR, Fc captured, receptor as analyte
Protocol: as §1, §2

Fc gamma receptor RIIB/C = biological target: T2, Fc gamma receptor RIIB/C; assay: SPR, Fc captured, receptor as analyte
Protocol: as §1, §2

[2] = biological target: T8, Fc gamma receptor RIIIA V176 (human, UniProt P08637 17-208); assay: SPR, Fc captured, receptor as analyte
T8 construct: soluble SPR analyte
T8 sequence (P08637 17-208 F176V): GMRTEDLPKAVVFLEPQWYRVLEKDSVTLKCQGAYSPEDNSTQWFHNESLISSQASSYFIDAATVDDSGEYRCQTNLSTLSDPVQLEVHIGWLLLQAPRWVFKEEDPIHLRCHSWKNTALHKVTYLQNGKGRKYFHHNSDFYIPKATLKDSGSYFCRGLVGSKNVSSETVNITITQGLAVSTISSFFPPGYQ
Protocol: as §1, §2

Fc gamma receptor RIIIB = biological target: T9, Fc gamma receptor RIIIB (human, UniProt O75015 17-200); assay: SPR, Fc captured, receptor as analyte
T9 construct: soluble SPR analyte
T9 sequence (O75015 17-200): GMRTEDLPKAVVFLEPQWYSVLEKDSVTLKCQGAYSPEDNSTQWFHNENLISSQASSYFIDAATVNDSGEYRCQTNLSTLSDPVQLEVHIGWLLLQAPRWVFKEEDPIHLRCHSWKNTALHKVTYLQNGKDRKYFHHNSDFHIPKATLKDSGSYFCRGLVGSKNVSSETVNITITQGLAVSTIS
Protocol: as §1, §2

Cyno RIII = biological target: T10, Cyno RIII (cynomolgus monkey, UniProt Q8SPW2 17-208); assay: SPR, Fc captured, receptor as analyte
T10 construct: extracellular domain
T10 sequence (Q8SPW2 17-208): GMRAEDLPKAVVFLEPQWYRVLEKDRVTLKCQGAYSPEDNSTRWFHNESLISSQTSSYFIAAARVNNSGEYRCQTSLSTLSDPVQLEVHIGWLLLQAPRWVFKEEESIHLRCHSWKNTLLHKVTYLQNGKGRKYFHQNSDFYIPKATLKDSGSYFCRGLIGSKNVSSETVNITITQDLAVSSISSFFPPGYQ
Protocol: as §2

[3] = biological target: T11, Fc gamma receptor RI on CHO-K1SV cells (human, UniProt P12314 16-374); assay: flow cytometry, CHO-K1SV transfectants
T11 construct: whole, on cells; also called FcγR1 cells
T11 sequence (P12314 16-374): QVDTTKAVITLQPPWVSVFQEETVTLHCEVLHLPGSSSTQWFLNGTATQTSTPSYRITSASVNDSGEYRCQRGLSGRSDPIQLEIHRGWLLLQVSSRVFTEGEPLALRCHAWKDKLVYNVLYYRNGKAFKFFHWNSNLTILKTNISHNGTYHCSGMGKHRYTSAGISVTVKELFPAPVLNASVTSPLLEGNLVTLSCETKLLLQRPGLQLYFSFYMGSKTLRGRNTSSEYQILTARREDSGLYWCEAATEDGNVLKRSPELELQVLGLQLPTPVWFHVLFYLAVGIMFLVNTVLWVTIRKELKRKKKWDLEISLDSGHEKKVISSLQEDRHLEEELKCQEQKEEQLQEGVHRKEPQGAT
Protocol: (§3) CHO-K1SV cells stably transfected with a series of FcγR receptors were incubated with each of the […] listed in Table 23. A typical experiment labeled approximately 100,000 cells per well, in 96-well plates, with a range of binding molecule concentrations of 1 to 1000 nM, in 100 μl of PBS buffer with 0.2% BSA and 2 mM EDTA, for 30 minutes on ice, followed by washes and incubation with PE-labeled minimum cross species reactive secondary antibody, goat anti-human IgG Fcγ, F(ab′)2 ([…]) for 30 minutes to 1 hour on ice. Signal from bound molecules was detected using a LSR-II™ flow cytometer (BD Biosciences) and analyzed by FlowJo flow cytometry analysis software. Mean fluorescence intensity (MFI) of bound molecules on cells was determined after exclusion of doublets.

[4] = biological target: T3, Fc gamma receptor RIIA H131 on CHO-K1SV …; assay: flow cytometry, CHO-K1SV transfectants
Protocol: as §3

[5] = biological target: T4, Fc gamma receptor RIIB/C on CHO-K1SV …; assay: flow cytometry, CHO-K1SV transfectants
Protocol: as §3

[6] = biological target: T12, Fc gamma receptor RIIIA F158 on CHO-K1SV cells (human, UniProt P08637 17-254); assay: flow cytometry, CHO-K1SV transfectants
T12 construct: whole, on cells
T12 sequence (P08637 17-254): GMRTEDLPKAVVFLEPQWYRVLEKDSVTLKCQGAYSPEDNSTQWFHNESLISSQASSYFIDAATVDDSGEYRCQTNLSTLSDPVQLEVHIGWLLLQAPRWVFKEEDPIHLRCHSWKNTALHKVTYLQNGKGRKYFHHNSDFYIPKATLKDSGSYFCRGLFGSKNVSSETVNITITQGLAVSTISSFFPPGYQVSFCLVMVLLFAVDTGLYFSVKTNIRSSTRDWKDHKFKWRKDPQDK
Protocol: as §3

[7] = biological target: T13, Fc gamma receptor RIIIA V158 on CHO-K1SV cells (human, UniProt P08637 17-254); assay: flow cytometry, CHO-K1SV transfectants
T13 construct: whole, on cells
T13 sequence (P08637 17-254 F176V): as the sequence (P08637 17-254) above, with F160V counted along it
Protocol: as §3

[8] = biological target: T14, Fc gamma receptor RIIIB on CHO-K1SV cells (human, UniProt O75015 17-200); assay: flow cytometry, CHO-K1SV transfectants
T14 construct: whole, on cells
T14 sequence (O75015 17-200): as the sequence (O75015 17-200) above
Protocol: as §3

[9] = biological target: T15, Recombinant FcRn/b2M protein (human, UniProt P55899 24-297; P61769 21-119, limits assumed); assay: SPR pH 6.0, FcRn/b2M immobilized, two-state reaction model
T15 construct: also called hFcRn/b2M; neonatal Fc receptor
Protocol: Recombinant FcRn/b2M protein was generated via transient transfection of HEK-293 cells with a bi-cistronic vector containing the genes for both FcRn and […]. The complex was purified using IMAC chromatography and subsequently buffer exchanged into IMAC elution buffer after verifying purity of the IMAC eluate by analytical SEC. hFcRn/b2M at 10 μg/ml in 10 mM sodium acetate (pH 4.5) was immobilized on a CM5 chip by direct amine coupling chemistry to a level of ˜600 RU. A reference flow cell was left blank.
Different concentrations of the Fc variant protein (5-80 nM by 2-fold dilutions in pH 6.0 running buffer) including running buffer as blank were injected in randomized order at 30 μL/min for 180 seconds followed by a 120 second dissociation period.
Sensorgrams obtained from kinetic SPR measurements were analyzed by the double subtraction method. The signal from the reference flow cell was subtracted from the analyte binding response obtained from flow cell with immobilized ligands. Buffer reference was subtracted from analyte binding responses, and the final double-referenced data were analyzed with Biacore T200 Evaluation software (2.0, GE), globally fitting data to derive kinetic parameters. All sensorgrams were fitted using two-state reaction model, as described in Weirong Wang et al, DrugMetab Dispos.: 39(9): 1469-77 (2011).

[10] = biological target: T5, Fc gamma receptor RIIA R167; assay: SPR, Fc captured, receptor as analyte, relative to wild type Fc
Protocol: as §1, §2

[11] = biological target: T8, Fc gamma receptor RIIIA V176; assay: as above
Protocol: as §1, §2

Row | binding result (C1Q) | binding result (Fc gamma receptor RI) | binding result [1] | binding result (Fc gamma receptor RIIB/C) | binding result [2] | binding result (Fc gamma receptor RIIIB) | binding result (Cyno RIII) | binding result [3] | binding result [4] | binding result [5] | binding result [6] | binding result [7] | binding result [8] | Kd [9] | binding result [10] | binding result [11] | Binder
1 | no binding | no binding | no binding | no binding | no binding | no binding | no binding | no binding (tested: 1 to 1000 nM) | no binding (tested: 1 to 1000 nM) | no binding (tested: 1 to 1000 nM) | no binding (tested: 1 to 1000 nM) | no binding (tested: 1 to 1000 nM) | no binding (tested: 1 to 1000 nM) | 19 nM | binds | – | TSC 1007 (other, IgG1 Fc with E233P, L234A, L235A, deletion of G236, G237A, K322A (EU); also called PAAdel TSC01007) EPKSSDKTHTCPPCPAPPAAAPSVFLFPPKPKDTLMISRTPEVTCVVVDVSHEDPEVKFNWYVDGVEVHNAKTKPREEQYNSTYRVVSVLTVLHQDWLNGKEYKCAVSNKALPAPIEKTISKAKGQPREPQVYTLPPSRDELTKNQVSLTCLVKGFYPSDIAVEWESNGQPENNYKTTPPVLDSDGSFFLYSKLTVDKSRWQQGNVFSCSVMHEALHNHYTQKSLSLSPG
2 | no binding | no binding | no binding | no binding | no binding | no binding | no binding | no binding (tested: 1 to 1000 nM) | no binding (tested: 1 to 1000 nM) | no binding (tested: 1 to 1000 nM) | no binding (tested: 1 to 1000 nM) | no binding (tested: 1 to 1000 nM) | no binding (tested: 1 to 1000 nM) | 20 nM | binds | – | TSC 1004 (other, IgG1 Fc with E233P, L234V, L235A, G237A, K322A (EU); also called PVAG TSC01004) EPKSSDKTHTCPPCPAPPVAGAPSVFLFPPKPKDTLMISRTPEVTCVVVDVSHEDPEVKFNWYVDGVEVHNAKTKPREEQYNSTYRVVSVLTVLHQDWLNGKEYKCAVSNKALPAPIEKTISKAKGQPREPQVYTLPPSRDELTKNQVSLTCLVKGFYPSDIAVEWESNGQPENNYKTTPPVLDSDGSFFLYSKLTVDKSRWQQGNVFSCSVMHEALHNHYTQKSLSLSPG
3 | no binding | no binding | no binding | no binding | – | no binding | no binding | no binding (tested: 1 to 1000 nM) | no binding (tested: 1 to 1000 nM) | no binding (tested: 1 to 1000 nM) | no binding (tested: 1 to 1000 nM) | – | no binding (tested: 1 to 1000 nM) | 19 nM | binds | binds | TSC 1006 (other, IgG1 Fc with E233P, L234A, L235A, G237A, K322A (EU); also called PAAG TSC01006) EPKSSDKTHTCPPCPAPPAAGAPSVFLFPPKPKDTLMISRTPEVTCVVVDVSHEDPEVKFNWYVDGVEVHNAKTKPREEQYNSTYRVVSVLTVLHQDWLNGKEYKCAVSNKALPAPIEKTISKAKGQPREPQVYTLPPSRDELTKNQVSLTCLVKGFYPSDIAVEWESNGQPENNYKTTPPVLDSDGSFFLYSKLTVDKSRWQQGNVFSCSVMHEALHNHYTQKSLSLSPG
